# Results published in patent US10508143 (ALETA BIOTHERAPEUTICS, dated 2019).
# B1: CD19-ECD-Leu16 scFv (VH/VL) (scFv)
# chain: PEEPLVVKVEEGDNAVLQCLKGTSDGPTQQLTWSRESPLKPFLKLSLGLPGLGIHMRPLAIWLFIFNVSQQMGGFYLCQPGPPSEKAWQPGWTVNVEGSGELFRWNVSDLGGLGCGLKNRSSEGPSSPSGKLMSPKLYVWAKDRPEIWEGEPPCLPPRDSLNQSLSQDLTMAPGSTLWLSCGVPPDSVSRGPLSWTHVHPKGPKSLLSLELKDDRPARDMWVMETGLLLPRATAQDAGKYYCHRGNLTMSFHLEITARPVLWHWLLRTGGWKGGGGSGGGGSGGGGSGGGGSEVQLQQSGAELVKPGASVKMSCKASGYTFTSYNMHWVKQTPGQGLEWIGAIYPGNGDTSYNQKFKGKATLTADKSSSTAYMQLSSLTSEDSADYYCARSNYYGSSYWFFDVWGAGTTVTVSSGSTSGGGSGGGSGGGGSSDIVLTQSPAILSASPGEKVTMTCRASSSVNYMDWYQKKPGSSPKPWIYATSNLASGVPARFSGSGSGTSYSLTISRVEAEDAATYYCQQWSFNPPTFGGGTKLEIKHHHHHH
# notes: C-terminal His tag; also called construct #63; #63
# B2: purified CD19 protein control (other, UniProt P15391 20-291, looked up)
# chain: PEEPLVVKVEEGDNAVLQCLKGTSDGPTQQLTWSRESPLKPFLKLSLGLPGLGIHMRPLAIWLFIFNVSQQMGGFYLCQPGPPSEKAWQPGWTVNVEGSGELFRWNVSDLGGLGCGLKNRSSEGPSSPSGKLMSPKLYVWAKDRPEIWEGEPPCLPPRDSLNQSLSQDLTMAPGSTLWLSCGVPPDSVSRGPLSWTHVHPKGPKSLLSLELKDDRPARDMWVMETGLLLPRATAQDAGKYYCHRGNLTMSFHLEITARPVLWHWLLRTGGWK
# B3: CD19-D1+2-Leu16 scFv (VL/VH) (scFv)
# chain: PEEPLVVKVEEGDNAVLQCLKGTSDGPTQQLTWSRESPLKPFLKLSLGLPGLGIHMRPLAIWLFIFNVSQQMGGFYLCQPGPPSEKAWQPGWTVNVEGSGELFRWNVSDLGGLGCGLKNRSSEGPSSPSGKLMSPKLYVWAKDRPEIWEGEPPCLPPRDSLNQSLSQDLTMAPGSTLWLSCGVPPDSVSRGPLSWTHVHPKGPKSLLSLELKDDRPARDMWVMETGLLLPRATAQDAGKYYCHRGNLTMSFHLEITARPGGGGSGGGGSGGGGSGGGGSDIELTQSPTILSASPGEKVTMTCRASSSVNYMDWYQKKPGSSPKPWIYATSNLASGVPARFSGSGSGTSYSLTISRVEAEDAATYYCQQWSFNPPTFGGGTKLEIKRGGGGSGGGGSGGGGSMAQVKLQESGAELVKPGASVKMSCKASGYTFTSYNMHWVKQTPGQGLEWIGAIYPGNGDTSYNQKFKGKATLTADKSSSTAYMQLSSLTSEDSADYYCARSNYYGSSYWFFDVWGQGTTVTVSSAAAHHHHHH
# notes: C-terminal His tag; also called construct #85; #85
# B4: C11D5.3 scFv (VH/VL) (scFv)
# scFv: QIQLVQSGPELKKPGETVKISCKASGYTFTDYSINWVKRAPGKGLKWMGWINTETREPAYAYDFRGRFAFSLETSASTAYLQINNLKYEDTATYFCALDYSYAMDYWGQGTSVTVSSGSTSGSGKPGSGEGSTKGDIVLTQSPPSLAMSLGKRATISCRASESVTILGSHLIHWYQQKPGQPPTLLIQLASNVQTGVPARFSGSGSRTDFTLTIDPVEEDDVAVYYCLQSRTIPRTFGGGTKLEIKGGGGSGGGGSGGGGSHHHHHH
# notes: His-tagged; also called construct #90; #90
# B5: C11D5.3 scFv (VL/VH) (scFv)
# scFv: DIVLTQSPPSLAMSLGKRATISCRASESVTILGSHLIHWYQQKPGQPPTLLIQLASNVQTGVPARFSGSGSRTDFTLTIDPVEEDDVAVYYCLQSRTIPRTFGGGTKLEIKGSTSGSGKPGSGEGSTKGQIQLVQSGPELKKPGETVKISCKASGYTFTDYSINWVKRAPGKGLKWMGWINTETREPAYAYDFRGRFAFSLETSASTAYLQINNLKYEDTATYFCALDYSYAMDYWGQGTSVTVSSGGGGSGGGGSGGGGSHHHHHH
# notes: His-tagged; also called construct #89; #89
# B6: CD19-D1+2-C11D5.3 scFv (VL/VH) (scFv)
# chain: PEEPLVVKVEEGDNAVLQCLKGTSDGPTQQLTWSRESPLKPFLKLSLGLPGLGIHMRPLAIWLFIFNVSQQMGGFYLCQPGPPSEKAWQPGWTVNVEGSGELFRWNVSDLGGLGCGLKNRSSEGPSSPSGKLMSPKLYVWAKDRPEIWEGEPPCLPPRDSLNQSLSQDLTMAPGSTLWLSCGVPPDSVSRGPLSWTHVHPKGPKSLLSLELKDDRPARDMWVMETGLLLPRATAQDAGKYYCHRGNLTMSFHLEITARPGGGGSGGGGSGGGGSGGGGSDIVLTQSPPSLAMSLGKRATISCRASESVTILGSHLIHWYQQKPGQPPTLLIQLASNVQTGVPARFSGSGSRTDFTLTIDPVEEDDVAVYYCLQSRTIPRTFGGGTKLEIKGSTSGSGKPGSGEGSTKGQIQLVQSGPELKKPGETVKISCKASGYTFTDYSINWVKRAPGKGLKWMGWINTETREPAYAYDFRGRFAFSLETSASTAYLQINNLKYEDTATYFCALDYSYAMDYWGQGTSVTVSSGGGGSGGGGSGGGGSHHHHHH
# notes: His-tagged; also called construct #91; #91
# B7: CD19-D1+2-Leu16 scFv (VH/VL) (scFv)
# chain: PEEPLVVKVEEGDNAVLQCLKGTSDGPTQQLTWSRESPLKPFLKLSLGLPGLGIHMRPLAIWLFIFNVSQQMGGFYLCQPGPPSEKAWQPGWTVNVEGSGELFRWNVSDLGGLGCGLKNRSSEGPSSPSGKLMSPKLYVWAKDRPEIWEGEPPCLPPRDSLNQSLSQDLTMAPGSTLWLSCGVPPDSVSRGPLSWTHVHPKGPKSLLSLELKDDRPARDMWVMETGLLLPRATAQDAGKYYCHRGNLTMSFHLEITARPGGGGSGGGGSGGGGSGGGGSMAQVKLQESGAELVKPGASVKMSCKASGYTFTSYNMHWVKQTPGQGLEWIGAIYPGNGDTSYNQKFKGKATLTADKSSSTAYMQLSSLTSEDSADYYCARSNYYGSSYWFFDVWGQGTTVTVSSGGGGSGGGGSGGGGSDIELTQSPTILSASPGEKVTMTCRASSSVNYMDWYQKKPGSSPKPWIYATSNLASGVPARFSGSGSGTSYSLTISRVEAEDAATYYCQQWSFNPPTFGGGTKLEIKRAAAHHHHHH
# notes: C-terminal His tag; also called construct #83; #83
# B8: CD19-D1+2-C11D5.3 scFv (VH/VL) (scFv)
# chain: PEEPLVVKVEEGDNAVLQCLKGTSDGPTQQLTWSRESPLKPFLKLSLGLPGLGIHMRPLAIWLFIFNVSQQMGGFYLCQPGPPSEKAWQPGWTVNVEGSGELFRWNVSDLGGLGCGLKNRSSEGPSSPSGKLMSPKLYVWAKDRPEIWEGEPPCLPPRDSLNQSLSQDLTMAPGSTLWLSCGVPPDSVSRGPLSWTHVHPKGPKSLLSLELKDDRPARDMWVMETGLLLPRATAQDAGKYYCHRGNLTMSFHLEITARPGGGGSGGGGSGGGGSGGGGSQIQLVQSGPELKKPGETVKISCKASGYTFTDYSINWVKRAPGKGLKWMGWINTETREPAYAYDFRGRFAFSLETSASTAYLQINNLKYEDTATYFCALDYSYAMDYWGQGTSVTVSSGSTSGSGKPGSGEGSTKGDIVLTQSPPSLAMSLGKRATISCRASESVTILGSHLIHWYQQKPGQPPTLLIQLASNVQTGVPARFSGSGSRTDFTLTIDPVEEDDVAVYYCLQSRTIPRTFGGGTKLEIKGGGGSGGGGSGGGGSHHHHHH
# notes: His-tagged; also called construct #92; #92
# B9: CD22-D123-Leu16 scFv (VH/VL) (scFv)
# chain: DSSKWVFEHPETLYAWEGACVWIPCTYRALDGDLESFILFHNPEYNKNTSKFDGTRLYESTKDGKVPSEQKRVQFLGDKNKACTLSIHPVHLNDSGQLGLRMESKTEKWMERIHLNVSERPFPPHIQLPPEIQESQEVTLTCLLNFSCYGYPIQLQWLLEGVPMRQAAVTSTSLTIKSVFTRSELKFSPQWSHHGKIVTCQLQDADGKFLSNDTVQLNVKHTPKLEIKVTPSDAIVREGDSVTMTCEVSSSNPEYTTVSWLKDGTSLKKQNTFTLNLREVTKDQSGKYCCQVSNDVGPGRSEEVFLQVQYAPEGGGGSGGGGSGGGGSGGGGSEVQLQQSGAELVKPGASVKMSCKASGYTFTSYNMHWVKQTPGQGLEWIGAIYPGNGDTSYNQKFKGKATLTADKSSSTAYMQLSSLTSEDSADYYCARSNYYGSSYWFFDVWGAGTTVTVSSGSTSGGGSGGGSGGGGSSDIVLTQSPAILSASPGEKVTMTCRASSSVNYMDWYQKKPGSSPKPWIYATSNLASGVPARFSGSGSGTSYSLTISRVEAEDAATYYCQQWSFNPPTFGGGTKLEIKHHHHHH
# notes: First three domains of CD22 (further mutated) fused to Leu16 scFv, C-terminal His tag; also called construct #65; #65
# Experiments:
# [1] = biological target: T1, CD20 on stable transfectant line 293-CD20 (UniProt P11836 1-297); experiment: flow cytometry on 293-CD20 cells, 200 µl fusion protein, FMC63-PE
# T1 construct: whole, on cells; also called CD20 expressing 293 cells
# T1 sequence (looked up): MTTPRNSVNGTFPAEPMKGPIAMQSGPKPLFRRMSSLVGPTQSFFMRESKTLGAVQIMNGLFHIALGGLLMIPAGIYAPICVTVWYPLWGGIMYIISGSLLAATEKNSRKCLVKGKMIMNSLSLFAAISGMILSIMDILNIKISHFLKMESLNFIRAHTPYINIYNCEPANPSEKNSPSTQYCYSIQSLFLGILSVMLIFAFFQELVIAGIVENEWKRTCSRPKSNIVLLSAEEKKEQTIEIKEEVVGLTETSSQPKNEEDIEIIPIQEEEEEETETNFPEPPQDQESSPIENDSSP
# [2] = biological target: T2, Human Her2/ErbB2 Protein, Fc Tag (ACRO Biosystems, Cat# HE2-H5253) (human, UniProt P04626 23-652); experiment: ELISA: protein on FMC63-coated plate, Her2-Fc titrated, anti-hIgGFc-HRP
# T2 construct: Bought; also called Her2-Fc; HER2-hFc; not shown: Fc tag of the bought protein
# [3] = biological target: T1, CD20 on stable transfectant line …; experiment: flow cytometry on 293-CD20 cells, FMC63-PE
# [4] = biological target: T3, Human BCMA Protein, Fc Tag (R&D Systems, Cat#193-BC-050) (human, UniProt Q02223 1-54); experiment: ELISA, plate-bound BCMA-Fc, anti-His-HRP
# T3 construct: Bought; also called Human BCMA-Fc; not shown: Fc tag of the bought protein
# T3 sequence (looked up): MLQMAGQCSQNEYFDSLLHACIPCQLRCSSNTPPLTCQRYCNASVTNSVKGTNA
# [5] = biological target: T1, CD20 on stable transfectant line …; experiment: flow cytometry on 293-CD20 cells, anti-His-PE or FMC63-PE
# [6] = biological target: T1, CD20 on stable transfectant line …; experiment: flow cytometry on 293-CD20 cells, 200 µl fusion protein, anti-His-PE
binder,measurement,setting,value
B1,binding result,[1],binds
B2,binding result,[2],no binding
B3,binding result,[3],no binding (tested: 200 µl fusion protein)
B4,binding result,[4],binds
B5,binding result,[4],binds
B6,binding result,[4],binds
B7,binding result,[5],binds
B8,binding result,[4],binds
B9,binding result,[6],binds
